According to US20210130436A1:

Target: PD-1 (PDCD1) (Homo sapiens (Human)) (UniProt Q15116)
Assay: cell-based or functional assay

Sequence of PD-1 (PDCD1) (Homo sapiens (Human)) (Q15116 21-288): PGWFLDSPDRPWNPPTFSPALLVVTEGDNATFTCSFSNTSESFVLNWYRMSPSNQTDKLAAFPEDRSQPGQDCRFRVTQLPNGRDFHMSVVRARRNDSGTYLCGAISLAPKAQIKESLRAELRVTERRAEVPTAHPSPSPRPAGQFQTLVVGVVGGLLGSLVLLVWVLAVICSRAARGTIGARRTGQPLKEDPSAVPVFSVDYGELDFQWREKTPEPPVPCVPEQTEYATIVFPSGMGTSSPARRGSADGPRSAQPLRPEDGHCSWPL

IFN gamma levels pg/mL (MLR) | Binder
1820 pg/mL | PD-L2 H15Q IgV-Fc (Fc fusion, not shown: a dimerising Fc or GST) LFTVTVPKELYIIEQGSNVTLECNFDTGSHVNLGAITASLQKVENDTSPHRERATLLEEQLPLGKASFHIPQVQVRDEGQYQCIIIYGVAWDYKYLTLKVKA
1090 pg/mL | PD-L2 I13V/H15Q/T47A/Q72H/R76G/I86T IgV-Fc (Fc fusion, not shown: a dimerising Fc or GST) LFTVTVPKELYIVEQGSNVTLECNFDTGSHVNLGAITASLQKVENDASPHRERATLLEEQLPLGKASFHIPHVQVGDEGQYQCIITYGVAWDYKYLTLKVKA
1190 pg/mL | PD-L2 N32D/S67L/V89D IgV-Fc (Fc fusion, not shown: a dimerising Fc or GST) LFTVTVPKELYIIEHGSNVTLECNFDTGSHVDLGAITASLQKVENDTSPHRERATLLEEQLPLGKALFHIPQVQVRDEGQYQCIIIYGDAWDYKYLTLKVKA
1190 pg/mL | PD-L2 I13V/H15Q/R76G/D77N/Q82R/V89D IgV-Fc (Fc fusion, not shown: a dimerising Fc or GST) LFTVTVPKELYIVEQGSNVTLECNFDTGSHVNLGAITASLQKVENDTSPHRERATLLEEQLPLGKASFHIPQVQVGNEGQYRCIIIYGDAWDYKYLTLKVKA
1230 pg/mL | PD-L2 S67L/V89D IgV-Fc (Fc fusion, not shown: a dimerising Fc or GST) LFTVTVPKELYIIEHGSNVTLECNFDTGSHVNLGAITASLQKVENDTSPHRERATLLEEQLPLGKALFHIPQVQVRDEGQYQCIIIYGDAWDYKYLTLKVKA
1720 pg/mL | PD-L2 I13V/H15Q/V31A/N45S/Q82R/V89D IgV-Fc (Fc fusion, not shown: a dimerising Fc or GST) LFTVTVPKELYIVEQGSNVTLECNFDTGSHANLGAITASLQKVESDTSPHRERATLLEEQLPLGKASFHIPQVQVRDEGQYRCIIIYGDAWDYKYLTLKVKA
1120 pg/mL | PD-L2 I13V/H15Q/V89D IgV-Fc (Fc fusion, not shown: a dimerising Fc or GST) LFTVTVPKELYIVEQGSNVTLECNFDTGSHVNLGAITASLQKVENDTSPHRERATLLEEQLPLGKASFHIPQVQVRDEGQYQCIIIYGDAWDYKYLTLKVKA
1600 pg/mL | PD-L2 I13V/H15Q/Q82R/V89D IgV-Fc (Fc fusion, not shown: a dimerising Fc or GST) LFTVTVPKELYIVEQGSNVTLECNFDTGSHVNLGAITASLQKVENDTSPHRERATLLEEQLPLGKASFHIPQVQVRDEGQYRCIIIYGDAWDYKYLTLKVKA
836 pg/mL | PD-L2 I13V/H15Q/T47A/E58G/S67L/Q82R/V89D IgV-Fc (Fc fusion, not shown: a dimerising Fc or GST) LFTVTVPKELYIVEQGSNVTLECNFDTGSHVNLGAITASLQKVENDASPHRERATLLGEQLPLGKALFHIPQVQVRDEGQYRCIIIYGDAWDYKYLTLKVKA
1170 pg/mL | PD-L2 F2L/H15Q/D46E/T47A/Q72H/R76G/Q82R/V89D IgV-Fc (Fc fusion, not shown: a dimerising Fc or GST) LLTVTVPKELYIIEQGSNVTLECNFDTGSHVNLGAITASLQKVENEASPHRERATLLEEQLPLGKASFHIPHVQVGDEGQYRCIIIYGDAWDYKYLTLKVKA
1020 pg/mL | PD-L2 S67L/I86T IgV-Fc (Fc fusion, not shown: a dimerising Fc or GST) LFTVTVPKELYIIEHGSNVTLECNFDTGSHVNLGAITASLQKVENDTSPHRERATLLEEQLPLGKALFHIPQVQVRDEGQYQCIITYGVAWDYKYLTLKVKA
1030 pg/mL | PD-L2 H15Q/S67L/I86T IgV-Fc (Fc fusion, not shown: a dimerising Fc or GST) LFTVTVPKELYIIEQGSNVTLECNFDTGSHVNLGAITASLQKVENDTSPHRERATLLEEQLPLGKALFHIPQVQVRDEGQYQCIITYGVAWDYKYLTLKVKA
1620 pg/mL | PD-L2 Q82R/V89D IgV-Fc (Fc fusion, not shown: a dimerising Fc or GST) LFTVTVPKELYIIEHGSNVTLECNFDTGSHVNLGAITASLQKVENDTSPHRERATLLEEQLPLGKASFHIPQVQVRDEGQYRCIIIYGDAWDYKYLTLKVKA
1230 pg/mL | PD-L2 H15Q/S39I/S67L/V89D IgV-Fc (Fc fusion, not shown: a dimerising Fc or GST) LFTVTVPKELYIIEQGSNVTLECNFDTGSHVNLGAITAILQKVENDTSPHRERATLLEEQLPLGKALFHIPQVQVRDEGQYQCIIIYGDAWDYKYLTLKVKA
1700 pg/mL | PD-L2 I13V/H15Q/T47A/Q82R IgV-Fc (Fc fusion, not shown: a dimerising Fc or GST) LFTVTVPKELYIVEQGSNVTLECNFDTGSHVNLGAITASLQKVENDASPHRERATLLEEQLPLGKASFHIPQVQVRDEGQYRCIIIYGVAWDYKYLTLKVKA
1060 pg/mL | PD-L2 H15Q/S67L/Q72H/R76G/V89D IgV-Fc (Fc fusion, not shown: a dimerising Fc or GST) LFTVTVPKELYIIEQGSNVTLECNFDTGSHVNLGAITASLQKVENDTSPHRERATLLEEQLPLGKALFHIPHVQVGDEGQYQCIIIYGDAWDYKYLTLKVKA
936 pg/mL | PD-L2 I13V/S39I/E44D/Q82R/V89D IgV-Fc (Fc fusion, not shown: a dimerising Fc or GST) LFTVTVPKELYIVEHGSNVTLECNFDTGSHVNLGAITAILQKVDNDTSPHRERATLLEEQLPLGKASFHIPQVQVRDEGQYRCIIIYGDAWDYKYLTLKVKA
1780 pg/mL | PD-L2 G28V/Q72H/R76G/I86T IgV-Fc (Fc fusion, not shown: a dimerising Fc or GST) LFTVTVPKELYIIEHGSNVTLECNFDTVSHVNLGAITASLQKVENDTSPHRERATLLEEQLPLGKASFHIPHVQVGDEGQYQCIITYGVAWDYKYLTLKVKA

IFN gamma levels pg/mL (MLR) | Binder
1560 pg/mL | PD-L2 E44D/V89D/W91R IgV-Fc (Fc fusion, not shown: a dimerising Fc or GST) LFTVTVPKELYIIEHGSNVTLECNFDTGSHVNLGAITASLQKVDNDTSPHRERATLLEEQLPLGKASFHIPQVQVRDEGQYQCIIIYGDARDYKYLTLKVKA
1730 pg/mL | PD-L2 H15Q/T47A/H69L/Q82R/V89D IgV-Fc (Fc fusion, not shown: a dimerising Fc or GST) LFTVTVPKELYIIEQGSNVTLECNFDTGSHVNLGAITASLQKVENDASPHRERATLLEEQLPLGKASFLIPQVQVRDEGQYRCIIIYGDAWDYKYLTLKVKA
1200 pg/mL | PD-L2 H15Q/T47A/S67L/Q82R/V89D IgV-Fc (Fc fusion, not shown: a dimerising Fc or GST) LFTVTVPKELYIIEQGSNVTLECNFDTGSHVNLGAITASLQKVENDASPHRERATLLEEQLPLGKALFHIPQVQVRDEGQYRCIIIYGDAWDYKYLTLKVKA
1640 pg/mL | PD-L2 H15Q/T47A IgV-Fc (Fc fusion, not shown: a dimerising Fc or GST) LFTVTVPKELYIIEQGSNVTLECNFDTGSHVNLGAITASLQKVENDASPHRERATLLEEQLPLGKASFHIPQVQVRDEGQYQCIIIYGVAWDYKYLTLKVKA
1080 pg/mL | PD-L2 I13V/H15Q/T47A/H69L/R76G/V89D IgV-Fc (Fc fusion, not shown: a dimerising Fc or GST) LFTVTVPKELYIVEQGSNVTLECNFDTGSHVNLGAITASLQKVENDASPHRERATLLEEQLPLGKASFLIPQVQVGDEGQYQCIIIYGDAWDYKYLTLKVKA
1260 pg/mL | PD-L2 I13V/H15Q/S39I/E44D/S67L IgV-Fc (Fc fusion, not shown: a dimerising Fc or GST) LFTVTVPKELYIVEQGSNVTLECNFDTGSHVNLGAITAILQKVDNDTSPHRERATLLEEQLPLGKALFHIPQVQVRDEGQYQCIIIYGVAWDYKYLTLKVKA
1210 pg/mL | PD-L2 H15Q/V31M/S67L/Q82R/V89D IgV-Fc (Fc fusion, not shown: a dimerising Fc or GST) LFTVTVPKELYIIEQGSNVTLECNFDTGSHMNLGAITASLQKVENDTSPHRERATLLEEQLPLGKALFHIPQVQVRDEGQYRCIIIYGDAWDYKYLTLKVKA
1090 pg/mL | PD-L2 H15Q/N24S/T47A/Q72H/R76G/V89D IgV-Fc (Fc fusion, not shown: a dimerising Fc or GST) LFTVTVPKELYIIEQGSNVTLECSFDTGSHVNLGAITASLQKVENDASPHRERATLLEEQLPLGKASFHIPHVQVGDEGQYQCIIIYGDAWDYKYLTLKVKA
1600 pg/mL | PD-L2 H15Q/T47A/Q72H/R76G/I86T IgV-Fc (Fc fusion, not shown: a dimerising Fc or GST) LFTVTVPKELYIIEQGSNVTLECNFDTGSHVNLGAITASLQKVENDASPHRERATLLEEQLPLGKASFHIPHVQVGDEGQYQCIITYGVAWDYKYLTLKVKA
868 pg/mL | PD-L2 I13V/S67L/V89D IgV-Fc (Fc fusion, not shown: a dimerising Fc or GST) LFTVTVPKELYIVEHGSNVTLECNFDTGSHVNLGAITASLQKVENDTSPHRERATLLEEQLPLGKALFHIPQVQVRDEGQYQCIIIYGDAWDYKYLTLKVKA
1080 pg/mL | PD-L2 H15Q/Q82R/V89D IgV-Fc (Fc fusion, not shown: a dimerising Fc or GST) LFTVTVPKELYIIEQGSNVTLECNFDTGSHVNLGAITASLQKVENDTSPHRERATLLEEQLPLGKASFHIPQVQVRDEGQYRCIIIYGDAWDYKYLTLKVKA
1220 pg/mL | PD-L2 I13V/H15Q/Q72H/R76G/I86T IgV-Fc (Fc fusion, not shown: a dimerising Fc or GST) LFTVTVPKELYIVEQGSNVTLECNFDTGSHVNLGAITASLQKVENDTSPHRERATLLEEQLPLGKASFHIPHVQVGDEGQYQCIITYGVAWDYKYLTLKVKA
934 pg/mL | PD-L2 H15Q/Q72H/Q74R/R76G/I86T IgV-Fc (Fc fusion, not shown: a dimerising Fc or GST) LFTVTVPKELYIIEQGSNVTLECNFDTGSHVNLGAITASLQKVENDTSPHRERATLLEEQLPLGKASFHIPHVRVGDEGQYQCIITYGVAWDYKYLTLKVKA
1750 pg/mL | PD-L2 I13V/H15Q/T37A/E44D/S48C/S67L/Q82R/V89D IgV-Fc (Fc fusion, not shown: a dimerising Fc or GST) LFTVTVPKELYIVEQGSNVTLECNFDTGSHVNLGAIAASLQKVDNDTCPHRERATLLEEQLPLGKALFHIPQVQVRDEGQYRCIIIYGDAWDYKYLTLKVKA
1250 pg/mL | PD-L2 I13V/H15Q/T47A/R76G/V89D IgV-Fc (Fc fusion, not shown: a dimerising Fc or GST) LFTVTVPKELYIVEQGSNVTLECNFDTGSHVNLGAITASLQKVENDASPHRERATLLEEQLPLGKASFHIPQVQVGDEGQYQCIIIYGDAWDYKYLTLKVKA
1070 pg/mL | PD-L2 H15Q/N18D/T47A/Q72H/V73A/R76G/I86T/V89D IgV-Fc (Fc fusion, not shown: a dimerising Fc or GST) LFTVTVPKELYIIEQGSDVTLECNFDTGSHVNLGAITASLQKVENDASPHRERATLLEEQLPLGKASFHIPHAQVGDEGQYQCIITYGDAWDYKYLTLKVKA
1170 pg/mL | PD-L2 V89D IgV-Fc (Fc fusion, not shown: a dimerising Fc or GST) LFTVTVPKELYIIEHGSNVTLECNFDTGSHVNLGAITASLQKVENDTSPHRERATLLEEQLPLGKASFHIPQVQVRDEGQYQCIIIYGDAWDYKYLTLKVKA
